Data on four substances can be found in publication PMC7401798.

Assay [1] deals with Taxol-stabilized microtubules (UniProt P02550). The assay is described as follows: co-sedimentation.
A further assay deals with HIS-TAN1-GFP (maize). Briefly: pull-down.
Chain of HIS-TAN1-GFP (maize) (C0PM98 whole entry): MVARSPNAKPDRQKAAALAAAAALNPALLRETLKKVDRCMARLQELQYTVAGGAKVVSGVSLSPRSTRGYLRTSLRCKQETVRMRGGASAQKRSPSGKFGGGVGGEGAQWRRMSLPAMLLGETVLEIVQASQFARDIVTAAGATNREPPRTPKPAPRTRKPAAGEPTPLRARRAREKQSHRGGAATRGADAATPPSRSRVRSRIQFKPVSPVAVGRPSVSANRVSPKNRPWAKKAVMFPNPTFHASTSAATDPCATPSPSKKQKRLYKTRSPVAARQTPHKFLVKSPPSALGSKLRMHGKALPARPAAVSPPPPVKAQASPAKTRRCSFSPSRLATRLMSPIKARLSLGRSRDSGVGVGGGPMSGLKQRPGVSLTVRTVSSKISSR

Chain of HIS-TAN1-GFP (natural protein) (C0PM98 whole entry): as above
Chain of Atto488-tagged HIS-TAN1-GFP (natural protein) (C0PM98 whole entry): as above

In the case of “6xHIS-tagged ZmTAN1 (TANGLED1) (natural protein)”, in assay [1], the K0.5 stood at 1.08 µM.

Turning to “Atto488-tagged HIS-TAN1-GFP (natural protein)”, in assay [1], the apparent affinity came out at 0.05 µM.

As to HIS-TAN1-GFP (natural protein), the apparent affinity in assay [1] was determined as 0.595 µM.

With “tubulin dimers (from UniProt P02550 1-451) (complex)”, the stoichiometry N (tubulin dimers per HIS-TAN1-GFP) in the assay with HIS-TAN1-GFP (maize) came to 2.
